Substrate in data set [1]: C[S+](C)[O-]
In words: purified protein. The conditions noted are these: Britton-Robinson buffer pH 6.0, 46 nM DorA, electron donor dithionite-reduced benzyl viologen.

Substrate in data set [2]: C[S+]([O-])CC[C@H](N)C(=O)O
Nature of the data set: purified protein. The class given is biochemical, Cereibacter sphaeroides. Particulars: Britton-Robinson buffer pH 6.0, 46 nM DorA, electron donor dithionite-reduced benzyl viologen, R,S diastereomer mixture used, KM already divided by 2 to count only the S-diastereomer.

B1: DorA DMSO reductase (Cereibacter sphaeroides) (protein)
chain: EGLANGEVMSGCHWGVFKARVENGRAVAFEPWDKDPAPSHQLPGVLDSIYSPTRIKYPMVRREFLEKGVNADRSTRGNGDFVRVTWDEALDLVARELKRVQESYGPTGTFGGSYGWKSPGRLHNCQVLMRRALNLAGGFVNSSGDYSTAAAQIIMPHVMGTLEVYEQQTAWPVVVENTDLMVFWAADPMKTNEIGWVIPDHGAYAGMKALKEKGTRVICINPVRTETADYFGADVVSPRPQTDVALMLGMAHTLYSEDLHDKDFLENCTTGFDLFAAYLTGESDGTPKTAEWAAEICGLPAEQIRELARSFVAGRTMLAAGWSIQRMHHGEQAHWMLVTLASMIGQIGLPGGGFGLSYHYSNGGSPTSDGPALGGISDGGKAVEGAAWLSESGATSIPCARVVDMLLNPGGEFQFNGATATYPDVKLAYWAGGNPFAHHQDRNRMLKAWEKLETFIVQDFQWTATARHADIVLPATTSYERNDIESVGDYSNRAILAMKKVVDPLYEARSDYDIFAALAERLGKGAEFTEGRDEMGWISSFYEAAVKQAEFKNVAMPSFEDFWSEGIVEFPITEGANFVRYADFREDPLFNPLGTPSGLIEIYSKNIEKMGYDDCPAHPTWMEPAERLGGAGAKYPLHVVASHPKSRLHSQLNGTSLRDLYAVAGHEPCLINPADAAARGIADGDVLRVFNDRGQILVGAKVSDAVMPGAIQIYEGGWYDPLDPSEEGTLDKYGDVNVLSLDVGTSKLAQGNCGQTILADVEKYAGAPVTVTVFDTPKGA
notes: full-length dorA with C-terminal 6-His tag (kept), pIND4-DorA-His; expressed in R. sphaeroides f. sp. denitrificans IL106 dorA- (host) and purified from periplasm; monomeric
Consider B1, for which, in the data set “purified protein [1]”, the Michaelis-Menten constant (Km) came to 1.8 ± 0.4 µM, the kcat worked out at 3.9 s⁻¹ and the kcat/Km amounted to 2.2e+06 M⁻¹ s⁻¹. In addition, in the data set “purified protein [2]”, the Michaelis-Menten constant (Km) amounted to 68.8 ± 5.7 µM, the kcat was determined as 4.2 ± 0.1 s⁻¹ and the kcat/Km stood at 61000 M⁻¹ s⁻¹.

Values taken from PMC7402097, “Reduction of Protein Bound Methionine Sulfoxide by a Periplasmic Dimethyl Sulfoxide Reductase” (Antioxidants, 2020).
